Experimental data reported in the supplement of paper PMC9170038.

Tested on: MS2 coat protein
Experiment: apparent KD of MS2 coat protein; designed switch direction (-1 OFF switch, 1 ON switch): -1; higher = weaker reporter binding
How it was run: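 Transcription of designed RNA switches on Illumina chips was done by stalled E. coli RNA polymerase. SNAP-549-labelled MS2 coat protein was then titrated in doubling steps from 0.7 or 1.5 nM to 3 µM, with steps of 0.8–1.5 h at the lowest and 10–20 min at the highest concentration. The per-design median over clusters of curve-fitted normalised fluorescence is reported as apparent KD.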

[1] = Eterna round: R95, input ligand: FMN 200 uM
[2] = Eterna round: R95, input ligand: microRNA oligo, concentration not stated
[3] = Eterna round: R95, input ligand: none
[4] = input ligand: microRNA oligo, concentration not stated

Row | Sequence | apparent KD of MS2 coat protein [1] [nM] | apparent KD of MS2 coat protein [2] [nM] | apparent KD of MS2 coat protein [3] [nM] | apparent KD of MS2 coat protein (input ligand: FMN 200 uM) [nM] | apparent KD of MS2 coat protein (input ligand: none) [nM] | apparent KD of MS2 coat protein [4] [nM]
1 | UGGUAACAUGAGGAUCACCCAUGUCAGGAUAUCAGGAAGAAGAGAGGAGAGUAGAAGAUGAGAAGGGACUAUAU [Excluse me! 10 - Jieux - Exclusion 1] (puzzle: Exclusion 1) | 20.2 | 24.5 | 27.5 |  |  | 
2 | UGGUAAUCAGUUAGGAUAUCAUCCGGCGUUGUCGGUGAGAAGGAACAUGAGGAUCACCCAUGUAUCGAUUUUAG [BmEX4 B.13] (Eterna round: R97, puzzle: Brourd's mod of Exclusion 4) |  |  |  | 26.5 | 19 | 
3 | UGGUGGAAGCAGGAUAUGCUUGUAUUAUUGAUAGCAGAAGGGCUAACAUGAGGAUCACCCAUGUAAGAGGUGUA [JR_E6_Sub057] (puzzle: Exclusion 6) | 190 | 203 | 238 |  |  | 
4 | UGGUGGAAGCAGGAUAUGCUUGUAUUAUUGAUUGCAGAAGGGCUAACAUGAGGAUCACCCAUGUAAGAGGUGUU [JR_E6_Sub056] (puzzle: Exclusion 6) | 303 | 289 | 327 |  |  | 
5 | UGGUGUGCGAAGGAUAUGUAGGCUAUCAUGUCAAUAGAAGGUUGCACAUGAGGAUCACCCAUGUAAGCCACUUA [Eternabot (L1) Solution 17] (Eterna round: R97, puzzle: Exclusion 6) |  |  |  | 69.2 | 83 | 
6 | UGUACGCGAGGAUAUACAUGAGGAUCACCCAUGUCAUAUGAAAUGUAAUGAGUAGCGGGUAGAAGGCGCUUUUG [Eternabot (L2) Solution 26] (Eterna round: R97, puzzle: Exclusion 3) |  |  |  | 21.8 | 31.3 | 
7 | UGUAGUUCAGGAUAUGAUGUUAAAUACAUGAGGAUCACCCAUGUAGAUCCUGAAUUUACAUCAGAAGGGAAUAUUU [JL-ex5-4.56 Brourd mod] (Eterna round: R97, puzzle: Exclusion 5) |  |  |  | 22.8 | 17.1 | 
8 | UGUCAGAUGGUAGGAUAUCCAUAUCGAGUGACCCUUUCAUAACAUGAGGAUCACCCAUGUUGGUGGGAGAAGGGCCGUAUGGUG [salish99_ExNG02_R04_026] (Eterna round: R96, puzzle: Exclusion NG 2) |  |  |  | 13.2 | 15.5 | 12.7
9 | UGUCAGAUGGUAGGAUAUCCAUAUCGAGUGACCCUUUCUUAACAUGAGGAUCACCCAUGUCGGUGGGAGAAGGGCCGUAUGGUG [salish99_ExNG02_R04_032] (Eterna round: R96, puzzle: Exclusion NG 2) |  |  |  | 31.4 | 29.9 | 24
10 | UGUCAGUCAGGAUAUGCAUACGUAGACAUGAGGAUCACCCAUGUGACGUGGGACUGGUGUGUAGAAGGGACGAACA [EX5 #79] (Eterna round: R97, puzzle: Exclusion 5) |  |  |  | 29.8 | 28.6 | 
11 | UGUGCGUAUGUGAGGAUAUGCUGGUCCUUGGAUCAGCAGAAGGCACAUGAGGAUCACCCAUGUGGUGUCGUACC [salish99_Bmod_Ex4_002] (puzzle: Brourd's mod of Exclusion 4) |  | 243 |  |  |  | 
12 | UGUGCGUAUGUGAGGAUAUGCUGGUCCUUGGAUCGGCAGAAGGCACAUGAGGAUCACCCAUGUGGUGUCGUACC [salish99_Bmod_ex4_075] (puzzle: Brourd's mod of Exclusion 4) |  | 154 |  |  |  | 
13 | UGUGCGUAUGUGAGGAUAUGCUGGUCCUUGGAUCGGCAGAAGGCACAUGAGGAUCACCCAUGUGGUGUCGUACU [salish99_Bmod_ex4_083] (puzzle: Brourd's mod of Exclusion 4) |  | 235 |  |  |  | 
14 | UGUGCGUAUGUGAGGAUAUGCUGGUCCUUGGAUCGGCAGAAGGCACAUGAGGAUCACCCAUGUGGUGUCGUUCG [salish99_Bmod_ex4_097] (puzzle: Brourd's mod of Exclusion 4) |  | 206 |  |  |  | 
15 | UGUGCUUCAGGAUAUACGUGACGUCCGUGAGGACGAAGGUUACAUGAGGAUCACCCAUGUAGAAGGGAAGUACU [Mat - Exclusion 2 - JL Mod - D30] (Eterna round: R97, puzzle: Exclusion 2) |  |  |  | 110 | 20.2 | 
16 | UGUUGUCGCGCAGGAUAUGAGGAUCACCCAUAUAGAGGAUAUGAAAAGAAGGCUCUGAGGAUCACCCAGAAGGGCGGGACAACU [pwkr exNG2 2xF5 2xFMN.23] (Eterna round: R96, puzzle: Exclusion NG 2) |  |  |  | 1390 | 222 | 141
17 | UGUUGUUCAGGAUAUGGUGUGUUUUACAUGAGGAUCACCCAUGUGGGUCCUGGUUUGGCGUCAGAAGGGAAUGUUG [salish99_ex5_r4_117] (Eterna round: R97, puzzle: Exclusion 5) |  |  |  | 788 | 1040 | 
18 | UUAAAGGCAGGAUAUACAUUUUUUUUAUUAUCCUCAUUAUUACAUGAGGAUCACCCAUGUAGAAGGGCCAAAUU [Mat - Exclusion 2 - Mod of Hog - D85] (Eterna round: R96, puzzle: Exclusion 2) |  |  |  | 312 | 357 | 187
